This note sets out measurements from patent US20260055368A1 (KIROMIC BIOPHARMA, published 2026).

Assay [1] concerns the target Mesothelin isoform 2 (IsoMSLN) (Homo sapiens (Human)) (UniProt Q13421). Briefly: flow cytometry on Lenti-X 293T cells transiently expressing MSLN isoform 2 (EGFP-gated).
Assay [2] has as its target MSLN isoform 1 (Mesothelin canonical polypeptide) (Homo sapiens (Human)) (UniProt Q13421). Briefly: flow cytometry on Lenti-X 293T cells transiently expressing MSLN isoform 1 (EGFP-gated). Background: A flow cytometer gives signals particle by particle.
Assay [3] deals with MSLN isoform 1 (Mesothelin canonical polypeptide) (Homo sapiens (Human), UniProt Q13421 37-598). Briefly: flow cytometry on Lenti-X 293T cells transiently expressing MSLN isoform 1. From the text: (§1) FIGS. 13A-13C show detection of cell surface expression of MSLN isoform 1 and 2 on the tumor cell surface by anti-isoMSLN-specific antibodies. FIG. 13A: the binding curve of different MSLN antibody clones in MSLN isoform 1 or isoform 2 overexpressing 293T cells. MSLN isoform 1 or 2 were transiently expressed in Lenti-X 293T cells; 48 hrs after transfection the cells were harvested and stained for different anti-MSLN antibody or mIgG1 isotype control (with different antibody concentration). MSLN-expressing cells were gated based on EGFP expression. The antibody binding MFI is plot along with the antibody concentration. FIG. 13B: flow cytometry staining of NCI H226 and Hela tumor cell lines with different anti-MSLN antibody clones. FIG. 13C: binding curve of increasing concentration of anti-IsoMSLN antibody clones to NCI H226 cells. The positive percentage of MSLN is plotted versus the antibody concentration.
(§2) Cell transfection and flow cytometry. […] 3 days after transfection, the transfected cells were harvested, counted, and wash once with FACS buffer, and resuspended in 100 μl FACS buffer containing […] human FcR blocker (BD Bioscience) per 0.1 million cells for 10 min, 4° C. […] Samples were acquired with NovoCyte 3000 and analyzed by NovoExpress (ACEA Biosciences Inc).

For assay [4], the target named is T1, Mesothelin isoform 2 (IsoMSLN) (Homo sapiens (Human), UniProt Q13421 37-598).
T1 construct: It was transiently expressed in Lenti-X 293T cells and is endogenous on NCI H226 cells; also called MSLN isoform 2; IsoMSLN2
Put plainly: flow cytometry on Lenti-X 293T cells transiently expressing MSLN isoform 2 (EGFP-gated).
Text: as §1, §2

T1 sequence (Q13421 37-606 limits assumed, form in doubt): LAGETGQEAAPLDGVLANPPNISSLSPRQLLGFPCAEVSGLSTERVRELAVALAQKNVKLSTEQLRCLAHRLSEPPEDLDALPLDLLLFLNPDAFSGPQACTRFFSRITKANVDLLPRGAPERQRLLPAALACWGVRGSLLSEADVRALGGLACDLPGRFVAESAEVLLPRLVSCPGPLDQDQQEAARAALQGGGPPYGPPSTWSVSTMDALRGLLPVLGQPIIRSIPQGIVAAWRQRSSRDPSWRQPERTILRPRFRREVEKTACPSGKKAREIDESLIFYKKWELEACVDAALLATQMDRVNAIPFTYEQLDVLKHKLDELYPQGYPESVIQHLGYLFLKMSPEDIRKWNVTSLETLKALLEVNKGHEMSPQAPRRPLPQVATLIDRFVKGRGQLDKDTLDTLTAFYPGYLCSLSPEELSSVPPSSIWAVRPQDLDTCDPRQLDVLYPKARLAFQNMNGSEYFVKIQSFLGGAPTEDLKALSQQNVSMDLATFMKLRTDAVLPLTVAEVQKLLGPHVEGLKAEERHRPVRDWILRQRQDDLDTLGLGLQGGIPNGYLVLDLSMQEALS
Chain of Mesothelin isoform 2 (IsoMSLN) (Homo sapiens (Human)) (Q13421 37-606 limits assumed, form in doubt): as above
Chain of MSLN isoform 1 (Mesothelin canonical polypeptide) (Homo sapiens (Human)) (Q13421 other isoform, or with tags, fused parts or gaps limits assumed): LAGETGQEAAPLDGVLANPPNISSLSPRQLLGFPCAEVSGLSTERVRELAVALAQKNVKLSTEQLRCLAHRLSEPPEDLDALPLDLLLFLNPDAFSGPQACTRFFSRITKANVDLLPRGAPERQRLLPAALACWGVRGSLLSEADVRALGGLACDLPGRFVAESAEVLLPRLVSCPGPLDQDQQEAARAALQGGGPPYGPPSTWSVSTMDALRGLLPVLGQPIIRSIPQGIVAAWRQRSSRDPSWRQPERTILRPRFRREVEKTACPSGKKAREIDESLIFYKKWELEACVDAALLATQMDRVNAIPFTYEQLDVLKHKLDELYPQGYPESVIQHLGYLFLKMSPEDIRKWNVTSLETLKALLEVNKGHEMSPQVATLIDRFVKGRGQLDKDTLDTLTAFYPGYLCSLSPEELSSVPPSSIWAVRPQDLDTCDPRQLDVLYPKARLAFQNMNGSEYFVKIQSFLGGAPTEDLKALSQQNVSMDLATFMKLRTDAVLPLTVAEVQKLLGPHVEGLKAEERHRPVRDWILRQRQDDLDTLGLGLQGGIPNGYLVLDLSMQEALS
Chain of MSLN isoform 1 (Mesothelin canonical polypeptide) (Q13421 other isoform, or with tags, fused parts or gaps limits assumed): as above

For orientation: EC50 means the concentration needed to bring the measured effect to its halfway point. Higher therefore signals weaker potency. Take Anti-MSLN mAb clone K1 (antibody): the EC50 in assay [1] was 0.106 µg/mL; in assay [2], 0.152 µg/mL.

B1: 1B6 monoclonal antibody (Binding Molecule A) (antibody, V domains shown)
VH: EVKLVESGGGLVKPGGSLKLSCEASGFTFSRYAMSWVRHTPEKRLAWVASITFGGDPYYPDGLKGRFTISRDNTRNILYLQMNSLRSEDTAMYYCVRHESWFAYWGQGTLVTVSA
VL: DVLMTQTPLSLPVSLGEQVSISCRSSQTIVHTDGNIYLEWYLQNPGQSPRLLIYKISNRFSGVPDRFSGSGSGTDFTLKISRVEAEDLGIYYCFQASHVPYTFGGGTKLEIK
notes: also called 1B6 antibody; 1B6 clone
For the molecule B1, the binding result in assay [3] is “no binding”. The molecule further gave an EC50 in assay [4] of 0.073 µg/mL.
